Measurements as given in article PMC7672607.

Columns and labels:
Experiment in all cases: flow cytometry on cells; K562/HLA-F*01:0x cells stripped of bound peptides with citrate phosphate buffer, with or without 200 µM HBB peptide (4 h, 37 °C, serum-free medium); Fc-block 20 min 4 °C; KIR3DS1-Fc 25 µg/mL, 40 min, 4 °C; detected with goat anti-human IgG Fc PE; n = 3
[1] = target: HLA-F*01:04 on K562 cells loaded with the HBB peptide … (human | human (endogenous in K562))
[2] = target: HLA-F*01:01 on K562 cells loaded with the HBB peptide … (human | human (endogenous in K562))
[3] = target: HLA-F*01:03 on K562 cells loaded with the HBB peptide … (human | human (endogenous in K562))

Substance: recombinant KIR3DS1-Fc chimeric protein (from UniProt Q14943 22-340) (Fc fusion)
- percent decrease of KIR3DS1 binding against the same cells without HBB peptide [1]: 16.5%
- percent decrease of KIR3DS1 binding against the same cells without HBB peptide [2]: 36.2%
- percent decrease of KIR3DS1 binding against the same cells without HBB peptide [3]: 27.9%
